Reference: the DeepSol protein solubility set

Assay: soluble on expression in E. coli; label from the status in PepcDB or PDB records

Sequence | soluble on expression in E. coli
MTNSNRRKFLKATGVGLLGGLAGCTRGGDSSGGDGSDGSSDGSDGSGGSDGGTSTSGSDGELAIPLSEYEDADIDWRQFEGSSINIGAVQHPWVSAIKPAVPVFEELTGIDVVWNVLPEQQFRTKRQTDVSTGAGQFDVFYMDQVVNQFREEGWIQPLDPFFDDDSLFDEDWYEPDDLFEASRWQAHGGGYSDTWTGMPITVEVQTQFYRKDLYDKHDLEVAETLEQFRQNAQTIHENESDVVGTVGRGDKGYGMNIYILNTFLREFGTSLWTEFPTDSGLDSDGVINAAEWYVSLLQDYGPEGASTQTWSDVLSTMQEGRAGHIVSDANLFWPGLTGSDSSVADNIGIAKAPSPADGQFSPNAFNWQISTSKNAQNSEQAFLFMVWASSQPTNTWMHVEGDAAFSVRQSVWENDEFRSRVGENFAQVTLESLQEAAPDPFDRKYPQWGQRYSEELQRAIAGQKSAEEAMTKAASVAEDIYSN | not soluble
MGSDKIHHHHHHMPPRPFDEMTNPDGGIRSPYGLYSDWVNQTPLDVLRQKHAQADVLFRRIGITFAVYGDNQGGERLIPFDVVPRIISKKEWDILSRGVCQRVDALNRFIYDVYHDQEILKAGKVPKGLVRNNGQFRKEMVGFTPPRNLYVQIAGIDIVRTAENEFHVLEDNLRTPSGVSYMLENRDVMTRLFPELFNRHPVAPVNHYAQELLKTLQYSAPDHADNPTVVVLTPGQYNSAYFEHAFLADEMGIELVQGQDLFVEGGHVYMRTIAGPQRVDVIYRRIDDDFLDPLAFRKDSMLGVPGLFEAYRSGAVTLANAIGTGIADDKAIYDFVPGMIEFYLGEKPILRNVPTYHLDDDDDRAYVLEHLAELVVKEVHGSGGYGMLVGPRASRQQISDYRDRILADPANFIAQPTLALSTCPTFVDQGLAPRHVDLRPFVLAGKTTQVVPGGLTRVALEKDSLVVNSSQGGGTKDTWVLER | not soluble
MPVGRKEQIVDCRAVMGLGEGGGLAQRGTFAEGLRNDVVVVAMSPGRRHITKPVCEITYGIREAGIQTSVLVLDAGGGIPSDAPQGSLGSTFGLKPEEAKQVNRHKLCVIHFGNVKSHIIYKARLFLKYVDIPTIIVCQTPVDMEDFAAIGIKTKNVMPLESKTEGKIVEIITGVIRGESAPQKKIDEIIESIKKHLGLEHHHHHH | not soluble
MSGGSDQVKNMIYINGNRRGHCFITSGITFKEFASNIPSPLHQVLLLKHNFEWTDFHYHTLFEYVEEENIHKLIQAEIDEFDEFCWVDFDDASDLDELEPKEIAELLYLAHKKEPLARTFFPLLKNRFVYFSHDDGWYNKVYYRRIADFVGMLSKVIPYKLGAFGKKRFSFFQKSKIFPAISKELIMGLIPLMEDGLYIDLAGKIESRRGLEIPVYVVGSYESTDEVLDNIDELKEEATETGWLIFDKKEQEWQWVVD | not soluble
MKNAVHFGAGNIGRGFIGKLLADAEVEVTFADVDVPLVDQLSHKQEYKVKVVGTECKIDTVTHVTAVNSASEDVIDRIVKTDLVTTAVGPNVLDIIAKTIAKGIAKRFEAGNDAPLNIIACENMVRGTTHLKGEVYKHLDKSLHAKADELVGFVDSAVDRIVPPAEAANDDPLEVTVESFSEWIVDEQQFKGDIPNIAGMEKTNNLMAFVERKLFTLNTGHCITAYLGCLKGHRTIREAIEDPNIHAEVKQAMQESGEVLIRRYGFDHDMHNAYIEKILGRFANPYLVDEVDRVGRQPIRKLGANDRLVKPLLGTIEYGTENQTLLKGIAAALKYTNDTDPQAVELQTSLKEVGVTKTLAKYTGLAEDSDEVAQIETLYNQL | not soluble
RGVAVYVDHVDGDIHPVTYELIGKARELAAKINHPVYAVFIGQNIKDKAEELLHYGVDEVFVYDDAALKYFRIEPYTKAFEDFINKNKPSTILVGATTVGRSLAPRIAARFRTGLTADCTILDMKENTDLVQIRPAFGGNIMAQIINPNNRPQLATVRYKVMNAPVRSEEKKGKITLCSLKDITSNIEVLKVVKKQVEEN | not soluble
MENYLIDNLDRGILEALMGNARTAYAELAKQFGVSPETIHVRVEKMKQAGIITGARIDVSPKQLGYDVGCFIGIILKSAKDYPSALAKLESLDEVTEAYYTTGHYSIFIKVMCRSIDALQHVLINKIQTIDEIQSTETLIVLQNPIMRTIKP | soluble
MSDEKIINQPQDVVSEMLDGLTYAYGDLIEKVPDFEIIQRKSPKSGKVALVSGGGSGHEPAHAGFVGEGMLSAAVCGAIFTSPTPDQIYEAIKSADEGAGVLLIIKNYLGDVMNFEMAREMAEMEEIKVEQIIVDDDIAVENSLYTQGRRGVAGTVLVHKILGAAAHQEASLDEIKDLADKVVKNIKTIGLALSAATVPEVGKPGFVLDDNEIEYGVGIHSEPGYRREKMKTSYELATELVGKLKEEFKFEAGQKYGILVNGMGATPLMEQFIFMNDVAKLLTEENIEILFKKVGNYMTSIDMAGLSLTMIKLEDDQWLKNLNEDVKTISWG | soluble
MGSDKIHHHHHHMSGPGTYSPPSSRLQYLGCCAGVAGARLVPGPLGGRFPFSNCVLVEDAGFKVLVDTGCEPWERGLVDVDVVVFTHFHPDHIRGFHRLRAGRVAAPEGEEPYAGRLERLALRFAGERWREWISMARLVMDLEGVPEPGEYFRPGEDLCFRGVCIKTYPARGHLQTHTLLELPGGLVHLVDIDLTGFGPWYGNPEASPELFLLDIEAAAEMEARGYLSAHKDRVYSRGEGVEALARFAGRLVEQAEGVYKALEAAGRPLWPWELTGRGIIYRRYLEGMEAIMSYFEGVMIEKLLGLLGLWGCTRKTPGGYVARDCHLGVIKDRITRNILSLA | not soluble
MKIEDIYQFFENPPPTYLCQEVAICYILYVLLQGESYGTELIQQLETEHPTYRLSDTVLYSAIKFLEDNRAITGYWKKLEGRGRPRRMYQVSPEWQHQAEDLARLWQNYIYVRTN | soluble
MTDDRVEQVLEAARRLVAAFARNDAEAYFAAFSEDASFIFHNWPQPLRSRAAYRKLWERWRREDGFEVLACESSNTCVSLQGDLAIFSHDVATRLRLQGTESLNRERETILFRLEQQEGRWLACHEHLSAMPEYLPSTS | not soluble
MNVLKLTNGREISYLNEVEIRMGIDELNGEERYKKELENMETSDITVHKYEGGFKIWECTVDLCDYIEENQTLFAGKSVLELGCGAALPSILTAVHGAKEVFAQDFNASVIEFFTLPNFEENPHSAVVQGEAMGWEEVPNRLSGRKFDFILSSETIYNEDDYQALHDAVAATIKDDGVAWFAAKFFYFGVGGSVPAFCEFINQRGILQASEAKVIAASVPRRIVEIRKK | not soluble
MSLDEKLRTSGVQVIGDIAWGTHFCQFYRTQEELVNVVCPYLKAGLEGNELCIWALPRDFETKKEAEGPLRRTIPKLDIYLEKGQMEIISYKDRYAEKEIPDSKKALENLIKKADYALLNGYSGLRLVQDTSWLKNDWKNLTGYEEELDIAIENRRITALCTYSSGKFDTDETIYAALSHRFVLVKKEGNWEKVENPRLKKAEERVIQPSEEVETKTEEENENLKKLLEERTVELTEAYKSLKVNEKQFLQIRKMTHIGNWKWDILTGELHWSDEVYRIFGRDPERFKATCDAFLGSVHPDDREYLINSIKKDFDEQIRNIDYRIVLPDGEERTVRTRVEITFDEENQPVRAEGIVQDITELKRIEKALQEREEQYRAFFENSMDAVLFASPDGTIHAANKAACKTFGMTEKEIIRAGRNGIVDQSDPRLKPSLEERNSTGRFKGEINHKRKDGTIFPGEVSTALFKDKNGLMKIVIIIRDITERKKAEEVLRKSEEHYRMLFTNEGHHHHHH | soluble
MGFEQLAELRDRLRAQAAQAKPAQTKSSAGRAKKREAVEPGVEAIWRLQRHFPLAFPKSPAAKVPLKQGILQDAQQHLELLGITAEQLKQAIATWCQGSRYWSCMVEDAPRLDLQGQVAGKVTAEQAVYARRQASRRQREQMREKRAKRAQAGGEAPAATEAPTPEAPATEASPEAN | not soluble
MEGRLTVVPTPIGNLEDITLRALKVLREADLILAEDTRTSSVLLHHYDIHCPLQSHHKFNEHRTAKSLAERISGGERIALISDAGTPGISDPGFLLVRACAELGVVVECLPGPTALIPALVASGLPADRFVFEGFLPVKKGRQTRMKELAEELRTMIFYESPHRVLRTLTQFVETFGLDRPAAACRELSKLHEEVIRGTLAELLAHFENHPPRGEFVLIVGGAAPKGRKEEKQ | not soluble
MGSDKIHHHHHHMPALCSTVQTLEKLAKDDVSSLALLGRSVMHDNALTSRILRVANSAIYHKGSTQISTVSRAAIVLGFDAVRNICITAQLLSSLLESKNLAPSVYQRLIKLMAKAFQAAMLTRMMLSDYDDDIQEEAFIACLLFHIGESAFWSIGGEFTETLDSQLTECETSADERSLIRETIGTSFSQLTQSIARHWGLGELLIQAVNYPDDPRPEIRSIFLADKLCDTLSVATPDKNDLEKYINQAANFTGLDETEFTLKMQRCTKATHKLAEAYGAKVLIDYLPDPQRIDKLEPYLPEAELPIFEANLNVQLVKLRELTAFAINKADFNQIMQTVLEGILEGVGVDRCGVLLLSPSRKQLQPRIMLGRDAEEMKRQFIIELGDRKGLFPMAMEHKESLWVDSPCAKKWQEQCRELKVQLPESGFLVAPLLVDNKVIGFYYADRGPSERCFAEVDFQAFIHFSQLANVCFTVSLK | not soluble
FVSFKHKYKVTSINEIAKDTFEITGTSLKNELKYKAGQFAFIKIPEKKSFFPSHPFTMSNSNKSNEIQFSIKVLGDHTKALKENLKVGDTLSVSGPHGKFNYENGLKHQIWIAGGIGITPFRSFWQAELPSDYTVDLFYTYNNENEGAYINELNSINKNSNLNIHSIDSSKNGFLGLEDLEKHIDKNLEYSVFFCGPKPMREKLRRDFEKVNFKIKDMNYEHFHF | not soluble
MYLGRHFLAMTSKALFDTKILKVNPLSIIFSPDAHIDGSLPTITDPETEAALVEAARIIRDTDETVAFPTETVYGLGGSALNDNSVLSIYRAKNRPSDNPLITHVSSIDQLNRKVFNQPHLSGTSLFDNIPSIYRPLISSLWPGPLTILLPVPSSEHSALSKLTTADQPTFAVRIPANPVARALIALSDTPIAAPSANASTRPSPTLASHVYHDLKDKIPIILDGGACKVGVESTVVDGLCNPPTLLRPGGFTYEEIVKLGGEAWSLCKVENKKTVEKGEKVRTPGMKYRHYSPSAKVVLLVPHCEGDGILKGVDRMERLKRLIETELKANSNIKKIAILTSLKLRDSDLQSKIFNEPDFSSKTFIIERLGQSGEEIQTNLFAALRKVDENDKVDLIFVEGINEEGEGLAVMNRLRKAAANNCIQF | not soluble
MYKHIVKRGETIASIARDYRTSVEALLRANGLTAASVIFPGQEIVIPHLPPKGSIPYTIHISISRRQLTLKHRGRTIRTYPIGVGKMVTATPVGDFVIVNRQPNPGGPFGAMWLSLSKIHYGIHGTNDPSSIGKYVSKGCIRMHNKDVLELASIVPNGTEVFIRP | not soluble
GSHMDASKIDQPDLAEVANASLDKKQVIGRISIPSVSLELPVLKSSTEKNLLSGAATVKENQVMGKGNYALAGHNMSKKGVLFSDIASLKKGDKIYLYDNENEYEYAVTGVSEVTPDKWEVVEDHGKDEITLITCVSVKDNSKRYVVAGDLVGTKAKK | soluble
